Experimental data from patent US11129879B2, “Methods for the treatment of neurological disorders and diseases using FNDC5” (Dana-Farber Cancer Institute, Inc., priority 2013, dated 2021).

Columns and labels:
[1] = test system: primary cortical neurons; test: gene expression by qPCR in cultured primary cortical neurons; format: cell-based, mouse; conditions: for Fndc5 gene expression: 1 μM; for Fndc5 gene expression / Fndc5 mRNA expression: DIV 7, vs vehicle; for Fndc5 mRNA expression: 100 ng/ml
Experimental: (§1) Primary cortical and hippocampal neurons were isolated as described in great detail previously in Bartlett and Banker (1984) J. Neurosci. 4, 1944-1953. Briefly, cortices and hippocampi were dissected from E16-E18 embryos, dissociated with trypsin (Sigma) and DNAse (Roche), and plated on poly-L-lysine-coated (Sigma) plates. Dissociated neurons were cultured in Neurobasal Media supplemented with B27, GlutaMAX™ (Life Technologies), and Penicillin-Streptomycin (Cellgro).
(§2) Cells or tissues were lysed and homogenized in TRIzol (Invitrogen). Total RNA was subsequently isolated using the RNeasy Mini or Micro Kit (Qiagen). First-strand cDNA was generated using the High Capacity cDNA Reverse Transcription Kit (Life Technologies), and qPCR was performed using SYBR Green Master Mix in a 7900HT Real-Time PCR system (Applied Biosystems). mRNA quantities were normalized to Rsp18 after determination by the comparative Ct method (Schmittgen and Livak (2008) Nat. Protocols 3, 1101-1108).
Primary cortical neurons were transduced at the indicated time-points and were harvested 48 hrs later for RNA isolation. For knockdown studies, primary cortical neurons were transduced with viral supernatants from HEK293T cells transfected with pLKO.1 vector (TRC) containing the specified shRNAs at the indicated time-points.

[2] = test system: substantia nigra; conditions: 4 mg/kg/d, harvested 2 days later, microarray, vs untreated mice; cited from earlier work
[3] = test system: SH-SSY5Y neurons; test: Fndc5 gene expression by qPCR in SH-SSY5Y neurons; format: cell-based, human; conditions: treatment with the neurotoxin
Experimental: The cells were differentiated with retinoic acid. Gene expression was assessed with qPCR.

[4] = test system: primary cortical neurons; test: irisin stimulation of silenced primary cortical neurons, mRNA levels of genes of interest; format: cell-based, mouse; conditions: 1 ug/mL (Enzo) at DIV7 after silencing with 1 uM TTX and 100 uM APV; time course, p<0.05 from baseline
Experimental: Primary cortical neurons were silenced at DIV6 with 1 uM TTX and 100 uM APV overnight. The neurons were then stimulated at DIV7 using irisin (1 ug/mL; Enzo; Product No. ADI-908-307-0010). […] In a separate analysis, primary cortical neurons were silenced at DIV6 with 1 uM TTX and 10 uM MK801 overnight. […] In still a separate analysis, primary cortical neurons were silenced at DIV6 with 1 uM TTX and 100 uM APS overnight. The neurons were then stimulated at […] using irisin (1 ug/mL; Enzo; Product No. ADI-908-307-0010). […] In yet another separate analysis, primary cortical neurons were silenced at DIV7 with 1 uM TTX and 100 uM APS overnight. The neurons were then stimulated at DIV8 using 1 ug/mL of irisin from one of two vendors (i.e., either from Enzo, Product No. ADI-908-307-0010, or from Phoenix, Product No. 067-29A).

[5] = test system: primary hippocampal neurons; test: gene expression by qPCR in cultured primary hippocampal neurons; format: cell-based, mouse
Experimental: At the indicated days in vitro (DIV) mRNA was prepared and gene expression was assessed by qPCR. Data are shown as mRNA levels relative to Rsp18 expression, expressed as mean±SEM. *P<0.05 compared to DIV 1 control group. […] Forty-eight hours later mRNA was prepared and gene expression was assessed by qPCR. Data are shown as mRNA levels relative to Rsp18 expression, expressed as mean±SEM. *P<0.05 compared to corresponding GFP expressing control group. […] Four days later mRNA was prepared and gene expression was assessed by qPCR. Data are shown as mRNA levels relative to Rsp18 expression, expressed as mean±SEM. *P<0.05 compared to corresponding shLuc expressing control group. […] Data are shown as mRNA levels relative to Rsp18 expression, expressed as mean±SEM. *P<0.05 compared to vehicle only group. […] Four days later mRNA was prepared and gene expression was assessed by qPCR. Data are shown as mRNA levels relative to Rsp18 expression, expressed as mean±SEM. *P<0.05 compared to corresponding shLuc expressing control group. […] Data are shown as mRNA levels relative to Rsp18 expression, expressed as mean±SEM. *P<0.05 compared to vehicle only group.
as §1
as §2, with “Total RNA was subsequently isolated using the RNeasy Mini or Micro Kit (Qiagen).” left out

[6] = test system: Wild type C56/B16 mice; test: peripheral injections of irisin-Fc, Bdnf gene expression by qPCR; format: in vivo, mouse; conditions: 5 mg/kg i.p., RNA 10d later, vs humanFc
Experimental: Wild type C56/B16 mice were injected with either irisinFc or humanFc (5 mg/kg) i.p. Total RNA for qPCR was harvested 10d later. Results are shown as mean+SEM, n=6, *P<0.05.

[7] = test system: primary cortical neurons; test: CellTiter-Glo Luminescent Cell Viability Assay of cultured neurons; format: cell-based, mouse; conditions: treatment during in vitro culture for 7 days, relative to hFc
Experimental: Cell viability of cultured neurons was assessed using CellTiter-Glo® Luminescent Cell Viability Assay (Promega, Madison, Wis.) according to the manufacturer's instructions. Luminescence of cell lysates was measured using the FLUOstar Omega plate reader (BMG LABTECH, Offenburg, Germany).

[8] = test system: primary cortical neurons; test: binding of irisinFc to PFA-fixed cultured neurons, detected by secondary anti-human Fc fluorescent antibody; design: species or system mouse; conditions: PFA-fixed cultures, vs humanFc
Experimental: PFA-fixed cultured primary cortical neurons were incubated with either irisin-Fc or humanFc as control and binding of irisinFc was detected by a secondary anti-human Fc fluorescent antibody. IrisinFc clearly binds to neurons in culture, especially given that the observed pattern of the binding and the fact that the cultures are highly enriched in neurons (>90%).

[9] = test system: human embryonic stem cells differentiated into motor neurons (eMN); test: human embryonic stem cells differentiated into motor neurons (eMN), gene expression by qPCR; format: cell-based
Experimental: Gene expression was assessed with qPCR.
Growth of human embryonic stem cells, differentiation of human embryonic stem cells into motor neurons, and glial co-culture were performed as described in DiGiorgio et al. (2008) Cell Stem Cell 3:637-648.

[10] = 1 ug/ml at DIV 5 and 6, vs vehicle
[11] = 5× concentrated conditioned media from CHO cell lines, RNA next day, vs hFc

Molecule: CCN(CC)c1ccc(/C=N/NC(=O)c2ccc(O)cc2)cc1 [DY131, reference compound]
- Fndc5 gene expression ([1]; overnight): had no effect on Fndc5 gene expression

Molecule: Cc1cc(SCc2sc(-c3ccc(C(F)(F)F)c(F)c3)nc2C)ccc1OCC(=O)O [GW0742, reference compound]
- Fndc5 gene expression ([1]; overnight): no effect on Fndc5 gene expression

Molecule: CN1CC=C(c2ccccc2)CC1 [MPTP, 1-methyl-4-phenyl-1,2,3,6-tetrahydropyridine]
- Fndc5 expression in substantia nigra [2]: significantly lower Fndc5 expression

Molecule: COC(=O)[C@@]1(O)C[C@H]2O[C@]1(C)n1c3ccccc3c3c4c(c5c6ccccc6n2c5c31)C(=O)NC4 [K252a, reference compound]
- reduction of Fndc5 mRNA expression by BDNF ([1]; pre-incubation with 50 nM, then BDNF 100 ng/ml overnight): This effect was abolished

Molecule: COc1cc(/C=C(\C#N)C(=O)Nc2nnc(C(F)(F)F)s2)ccc1OCc1ccc(C(F)(F)F)cc1C(F)(F)F [XCT 790, reference compound]
- Fndc5 gene expression ([1]; overnight): significantly reduced Fndc5 gene expression

Molecule: IGF-1: recombinant mouse insulin-like growth factor 1, R&D Systems
- Fndc5 mRNA expression ([1]; overnight): only BDNF stimulation significantly reduced

Molecule: CC(C)(Sc1ccc(CCN(CCCCC2CCCCC2)C(=O)NC2CCCCC2)cc1)C(=O)O [GW7647, reference compound]
- Fndc5 gene expression ([1]; overnight): no effect on Fndc5 gene expression

Molecule: C=C(C)[C@H]1Cc2c(ccc3c2O[C@@H]2COc4cc(OC)c(OC)cc4[C@@H]2C3=O)O1 [rotenone]
- Fndc5 gene expression [3]: reduces Fndc5 gene expression

B1: NGF: recombinant mouse nerve growth factor, EMD Millipore (protein, UniProt P01139 122-241, looked up)
Beta-nerve growth factor: SSTHPVFHMGEFSVCDSVSVWVGDKTTATDIKGKEVTVLAEVNINNSVFRQYFFETKCRASNPVESGCRGIDSKHWNSYCTTTHTFVKALTTDEKQAAWRFIRIDTACVCVLSRKATRRG
- Fndc5 mRNA expression ([1]; overnight): only BDNF stimulation significantly reduced

B2: recombinant irisin: commercially available recombinant irisin, secreted form of FNDC5 (Phoenix Pharmaceuticals; Enzo in b292) (protein, UniProt Q8NAU1 1-191, looked up)
Irisin: MQAARGGAGRPERPGRPGRGPERERERPPGAGAASPCAAPGLPAGGATIHPGSPSAWPPRARAALRLWLGCVCFALVQADSPSAPVNVTVRHLKANSAVVSWDVLEDEVVIGFAISQQKKDVRMLRFIQEVNTTTRSCALWDLEEDTEYIVHVQAISIQGQSPASEPVLFKTPREAEKMASKNKDEVTMKE
modifications: Irisin
- changes in mRNA levels of genes of interest [4]: many of the analyzed genes have statistically significant changes
- Bdnf gene expression [5, 10]: did not reach statistical significance
- gene program (Arc, cFos, Npas4, and Zif268) [5, 10]: induced a similar gene program

B3: GDNF: recombinant human glial cell-derived neurotrophic factor, Sigma (protein, UniProt P39905 78-211, looked up)
Glial cell line-derived …: SPDKQMAVLPRRERNRQAAAANPENSRGKGRRGQRGKNRGCVLTAIHLNVTDLGLGYETKEELIFRYCSGSCDAAETTYDKILKNLSRNRRLVSDKVGQACCRPIAFDDDLSFLDDNLVYHILRKHSAKRCGCI
- Fndc5 mRNA expression ([1]; overnight): only BDNF stimulation significantly reduced

B4: CNTF: recombinant human ciliary neurotrophic factor, Sigma (protein, UniProt P26441 1-200, looked up)
Ciliary neurotrophic factor: MAFTEHSPLTPHRRDLCSRSIWLARKIRSDLTALTESYVKHQGLNKNINLDSADGMPVASTDQWSELTEAERLQENLQAYRTFHVLLARLLEDQQVHFTPTEGDFHQAIHTLLLQVAAFAYQIEELMILLEYKIPRNEADGMPINVGDGGLFEKKLWGLKVLQELSQWTVRSIHDLRFISSHQTGIPARGSHYIANNKKM
- Fndc5 mRNA expression ([1]; overnight): only BDNF stimulation significantly reduced

B5: irisinFc: Fc fusion of irisin (murine Fndc5 residues 29-140); amino acid sequence given in b228 (protein)
chain: DSPSAPVNVTVRHLKANSAVVSWDVLEDEVVIGFAISQQKKDVRMLRFIQEVNTTTRSCALWDLEEDTEYIVHVQAISIQGQSPASEPVLFKTPREAEKMASKNKDEVTMKEGGGGAGGGGVECPPCPAPPVAGPSVFLFPPKPKDTLMISRTPEVTCVVVDVSHEDPEVQFNWYVDGVEVHNAKTKPREEQFNSTFRVVSVLTVVHQDWLNGKEYKCKVSNKGLPAPIEKTISKTKGQPREPQVYTLPPSREEMTKNQVSLTCLVKGFYPSDIAVEWESNGQPENNYKTTPPMLDSDGSFFLYSKLTVDKSRWQQGNVFSCSVMHEALHNHYTQKSLSLSPGK
modifications: /note=“Description of Artificial Sequence IrisinFc polypeptide”
- Bdnf expression in the cerebellum [6]: significant increase in Bdnf expression
- Bdnf expression in the sciatic nerve [6]: significant increase in Bdnf expression
- cell viability [7]: significantly increased cell viability
- binding to neurons [8]: neurons bind irisinFc
- eMN synapse formation [9]: increases eMN synapse formation
- motor neuron differentiation of eMN [9]: promotes motor neuron differentiation
- Bdnf expression [1, 11]: increased expression of Fndc5 and Bdnf
- Fndc5 expression [1, 11]: increased expression of Fndc5 and Bdnf

B6: BDNF: recombinant human brain-derived neurotrophic factor, PeproTech (protein)
chain: HSDPARRGELSVCDSISEWVTAADKKTAVDMSGGTVTVLEKVPVSKGQLKQYFYETKCNPMGYTKEGCRGIDKRHWNSQCRTTQSYVRALTMDSKKRIGWRFIRIDTSCVCTLTIKRGR
- Fndc5 gene expression ([5]; 100 ng/ml, overnight, DIV 7, vs vehicle): reduced Fndc5 gene expression
- Fndc5 mRNA expression ([1]; overnight): only BDNF stimulation significantly reduced Fndc5 mRNA expression
- lowest concentration that significantly reduced Fndc5 gene expression ([1]; overnight, 0.1-100 ng/ml tested, dose-response observed): 1 ng/mL
